Laboratory results published in article PMC3338121.
pKd: −log10 of the molar value.

Molecular target: Recombinant soluble empty (peptide free) HLA-DR1 (human)
Experiment: competitive peptide binding assay

| Substance | pKd |
| --- | --- |
| P2,7,10 SPG peptide (HA_(306–319) substituted at P2, P7 and P10), unlabeled | 6.22 |
| P2,3,7,10 SDPG peptide (HA_(306–319) substituted at P2, P3, P7 and P10), unlabeled | 3.50 |
| P2,10 SG peptide (HA_(306–319) substituted at P2 and P10), unlabeled | 6.43 |
| P2 S peptide (HA_(306–319) substituted at P2), unlabeled | 7.01 |
